The record followed here is PMC9035704.

Several values for one entry are separate records, joined by “and”; a condition that tells them apart may be missing. Identical values can stand only once. Like-named read-outs stand apart in the source and are kept apart here.

Holding throughout (assay): cryo-EM structure
In assay [1] the target is Danio rerio calcium homeostasis modulator 1 (drCALHM1) (Danio rerio) (UniProt E7F2J4).
Assay [2] has the same target. The source holds these as a separate data set.
For assay [3] the target is unchanged. The source holds these as a separate data set.

Take “Danio rerio calcium homeostasis modulator 1 (drCALHM1) (from UniProt E7F2J4 1-346) (natural protein)”: the stoichiometry N is 7 and 8 in assay [1]; 8 in assay [2]; 7 in assay [3].

Usually stoichiometry N stands for a count of units in the complex or per binding partner.
